According to patent US20200024330A1:

Experiments:
Experiment in all cases: cell-based or functional assay
[1] = biological target: HIV-1 93UG077 envelope glycoprotein (Env) (HIV-1)
[2] = biological target: HIV-1 MGRM-C-019 Env (HIV-1)
[3] = biological target: HIV-1 MGRM-C-007 Env (HIV-1)
[4] = biological target: HIV-1 Env of isolate 92UG024 (clade D) (HIV-1)
[5] = biological target: HIV-1 Env of isolate MGRM-D-002 (clade D) (HIV-1)
[6] = biological target: HIV-1 LAVI_C22 Env (HIV-1)
[7] = biological target: HIV-1 Env of isolate MGRM-D-020 (clade D) (HIV-1)
[8] = biological target: HIV-1 Env of pseudovirus JRCSF, clade B (HIV-1) (UniProt P20871)
[9] = biological target: HIV-1 MGRM-A-014 envelope glycoprotein (Env) (HIV-1)
[10] = biological target: HIV-1 MGRM-F1-004 Env (pseudovirus) (HIV-1)
[11] = biological target: HIV-1 APV-6 envelope protein (Env) on pseudovirus (HIV-1)
[12] = biological target: HIV-1 Env of pseudovirus CAAN.A2 (Acute), clade B (HIV-1)
[13] = biological target: HIV-1 MGRM-F1-006 Env (pseudovirus) (HIV-1)
[14] = biological target: HIV-1 Env of pseudovirus QH0692.42 (Acute), clade B (HIV-1)
[15] = biological target: HIV-1 Env of isolate MGRM-D-011 (clade D) (HIV-1)
[16] = biological target: HIV-1 92RW020 envelope glycoprotein (Env) (HIV-1)
[17] = biological target: HIV-1 Env of isolate MGRM-D-004 (clade D) (HIV-1)
[18] = biological target: HIV-1 MGRM-F1-018 Env (pseudovirus) (HIV-1)
[19] = biological target: HIV-1 Env of isolate MGRM-G-013 (clade G pseudovirus) (HIV-1)

Chain of 1443_C16 (PG16) (TCN-116) (antibody) (VH): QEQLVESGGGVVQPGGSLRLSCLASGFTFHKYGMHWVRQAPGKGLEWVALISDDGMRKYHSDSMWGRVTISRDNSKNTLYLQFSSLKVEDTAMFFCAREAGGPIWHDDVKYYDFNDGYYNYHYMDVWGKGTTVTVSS
Chain of 1443_C16 (PG16) (TCN-116) (antibody) (VL): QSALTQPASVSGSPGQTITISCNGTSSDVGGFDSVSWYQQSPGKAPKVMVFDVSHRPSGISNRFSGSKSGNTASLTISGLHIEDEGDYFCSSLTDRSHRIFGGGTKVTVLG

| Substance | IC50 (µg/ml), pseudovirus neutralization [1] | IC50 [2] | IC50 [3] | IC50 (µg/ml), pseudovirus neutralization [4] | IC50 (µg/ml), pseudovirus neutralization [5] | IC50 [6] | IC50 (µg/ml), pseudovirus neutralization [7] | IC50 (µg/ml), pseudovirus neutralization [8] | IC50 (µg/ml), pseudovirus neutralization [9] | IC50 (µg/ml), pseudovirus neutralization [10] | neutralization IC50 [11] | IC50 (µg/ml), pseudovirus neutralization [12] | IC50 (µg/ml), pseudovirus neutralization [13] | IC50 (µg/ml), pseudovirus neutralization [14] | IC50 (µg/ml), pseudovirus neutralization [15] | IC50 (µg/ml), pseudovirus neutralization [16] | IC50 (µg/ml), pseudovirus neutralization [17] | IC50 (µg/ml), pseudovirus neutralization [18] | IC50 (µg/ml), pseudovirus neutralization [19] |
| --- | --- | --- | --- | --- | --- | --- | --- | --- | --- | --- | --- | --- | --- | --- | --- | --- | --- | --- | --- |
| 2F5 (antibody) | 3.3 µg/mL | > 50 µg/mL | > 50 µg/mL | 0.95 µg/mL | 24.6 µg/mL | > 50 µg/mL | > 50 µg/mL | 1.85 µg/mL | 1.43 µg/mL | 4.31 µg/mL | 0.1 µg/mL | 23.1 µg/mL | 1.1 µg/mL | 5.42 µg/mL | > 50 µg/mL | 3.36 µg/mL | 2.3 µg/mL | 3.91 µg/mL | 0.59 µg/mL |
| 2G12 (antibody) | > 50 µg/mL | > 50 µg/mL | > 50 µg/mL | 0.42 µg/mL | > 50 µg/mL | > 50 µg/mL | > 50 µg/mL | 0.37 µg/mL | > 50 µg/mL | > 50 µg/mL | 5.3 µg/mL | > 50 µg/mL | > 50 µg/mL | 4.39 µg/mL | 1.5 µg/mL | 0.48 µg/mL | > 50 µg/mL | > 50 µg/mL | > 50 µg/mL |
| 4E10 (antibody) | 10.6 µg/mL | 3.49 µg/mL | 5.84 µg/mL | 2.17 µg/mL | 9.44 µg/mL | 2.02 µg/mL | > 50 µg/mL | 3.3 µg/mL | 1.74 µg/mL | 2.74 µg/mL | 0.4 µg/mL | 17.9 µg/mL | 1.01 µg/mL | 12.7 µg/mL | 0.91 µg/mL | 4.54 µg/mL | 1.58 µg/mL | 3.6 µg/mL | 1.15 µg/mL |
| 1443_C16 (PG16) (TCN-116) (antibody) | > 50 µg/mL | 0.002 µg/mL | 0.05 µg/mL | 24 µg/mL | 0.01 µg/mL | 0.02 µg/mL | 16.3 µg/mL | 0.001 µg/mL | 20.3 µg/mL | 0.43 µg/mL | 0.08 µg/mL | 8.83 µg/mL | 0.27 µg/mL | > 50 µg/mL | 0.01 µg/mL | 0.28 µg/mL | 0.01 µg/mL | 0.01 µg/mL | > 50 µg/mL |
| 1495_C14 (PGC14) (antibody) | > 50 µg/mL | 12 µg/mL | > 50 µg/mL | > 50 µg/mL | 29 µg/mL | 25 µg/mL | > 50 µg/mL | 15 µg/mL | > 50 µg/mL | > 50 µg/mL | 7.41 µg/mL | > 50 µg/mL | > 50 µg/mL | > 50 µg/mL | > 50 µg/mL | 46 µg/mL | > 50 µg/mL | > 50 µg/mL | > 50 µg/mL |
| b12 (antibody) | 47 µg/mL | > 50 µg/mL | > 50 µg/mL | 45.6 µg/mL | > 50 µg/mL | 7.64 µg/mL | > 50 µg/mL | 0.21 µg/mL | > 50 µg/mL | > 50 µg/mL | > 25 µg/mL | > 50 µg/mL | > 50 µg/mL | 0.73 µg/mL | 7.75 µg/mL | > 50 µg/mL | > 50 µg/mL | > 50 µg/mL | > 50 µg/mL |
